Experimental data as given in PMC5378893 (Scientific Reports, 2015).
Where a chain is given by its changes, count along the chain named.

B1: Fab37 (positive control IgG) (antibody, V domains shown)
VH: EVQLVESGGGLVQPGGSLRLSCAASGFSIWWSWIHWVRQAPGKGLEWVASISPSSGWTSYADSVKGRFTISADTSKNTAYLQMNSLRAEDTAVYYCARWWSSAMDYWGQGTLVTVSS
VL: DIQMTQSPSSLSASVGDRVTITCRASQSVSSAVAWYQQKPGKAPKLLIYSASSLYSGVPSRFSGSRSGTDFTLTISSLQPEDFATYYCQQWWWWPSTFGQGTKVEIK
B2: GH2-40 IgG (antibody, V domains shown)
VH: EVQLVESGGGLVQPGGSLRLSCAASGFTINSWGIHWVRQAPGKGLEWVAWIGPYWGFTSYADSVKGRFTISADTSKNTAYLQMNSLRAEDTAVYYCARFDGHFDGVMDYWGQGTLVTVSS
VL: DIQMTQSPSSLSASVGDRVTITCRASQDVNNGVAWYQQKPGKAPKLLISGTPWLYSGVPSRFSGSGSGTDFTLTISSLQPEDFATYYCQQYFDWPLTFGQGTKVEIK
notes: source: HEK293-F, transient transfection, purified (Protein A, Superdex 200)
B3: GH2-91 IgG (antibody, V domains shown)
VH: B2 VH with S31N, W32F, W50S, Y54F, F57Y, D100G, G101N, H102D, F103Y
VL: B2 VL with Q27H, N30G, N31W, G50W, T51P, P52T, W53Y, D93S, W94Y, L96I
notes: as for B2
B4: GH2-59 IgG (antibody, V domains shown)
VH: EVQLVESGGGLVRPGGSLRLSCAASGFTIGDWYIHWVRQAPGKGLEWVAGIGPYWGYTSYADSVKGRFTISADTSKNTAYLQMNSLRAEDTAVYYCARFVGDVWHDMDYWGQGTLVAVSS
VL: B2 VL with N30S, N31G, G50W, P52G, W53S, Y91W, F92S, W94F, L96I
notes: as for B2
B5: GH2-78 IgG (antibody, V domains shown)
VH: B2 VH with S31N, W50G, W55G, F57Y, D100G, G101V, H102I, F103I, V106I
VL: B2 VL with G32S, G50W, T51P, P52T, W53G, F92Y, D93S, L96I
notes: as for B2
B6: GH2-87 IgG (antibody, V domains shown)
VH: EVQLVESGGGLVQPGGSLRLSCAASGFTISSYGIHWVRQAPGKGLEWVAGIGPFGGFTSYADSVKGRFTISADTSKNTAYLQMNSLRAEDTAVYYCARFLNIHLGWMDYWGQGTLVTVSS
VL: B2 VL with G32S, S49F, P52R, W53Y, F92Y, D93N, W94Y
notes: as for B2
B7: GH2-7 IgG (antibody, V domains shown)
VH: EVQLVESGGGLVQPGGSLRLSCAASGFTIDDYFIHWVRQAPGKGLEWVAGIGPSWGYTFYADSVKGRFTISADTSKNTAYLQMNSLRAEDTAVYYCARFGHNFVNGMDYWGQGTLVTVSS
VL: B2 VL with N30S, N31G, G32W, P52A, W53G, F92Y, W94F, L96V
notes: as for B2
B8: GH2-81 IgG (antibody, V domains shown)
VH: B2 VH with S31D, W32Y, W50G, Y54F, W55G, F57Y, D100G, G101V, H102L
VL: B2 VL with N31D, G50F, P52T, W53G, F92Y, D93N, L96I
notes: as for B2
B9: GH2-61 IgG (antibody, V domains shown)
VH: B2 VH with S31N, W50G, G52W, W55G, F57Y, S59Y, D100Y, G101N, F103H, D104G
VL: B2 VL with N30G, N31S, G32N, G50W, T51S, P52T, W53S, F92G, D93G, L96I
notes: as for B2
B10: GH2-60 IgG (antibody, V domains shown)
VH: EVQLVESGGGLVQPGGSLRLSCAASGFTISDFGIHWVRQAPGKGLEWVAGIWPYWGYTYYADSVKGRFTISADTSKNTAYLQMNSLRAEDTAVYYCARFWNIYWNVMDYWGQGTLVTVSS
VL: B2 VL with S7G, N30G, N31S, G32W, G50S, T51P, W53S, Y91G, W94S, L96I
notes: as for B2
B11: GH2-65 IgG (antibody, V domains shown)
VH: B10 VH with S30D, F32W, G50W, Y59F, W100L, N101D, I102W, Y103N, W104N, V106W
VL: B2 VL with N30S, N31G, G32W, G50S, T51A, P52S, W53F, F92Y, W94F, L96V
notes: as for B2
B12: GH2-42 IgG (antibody, V domains shown)
VH: B2 VH with N30S, S31N, W50G, W55G, F57Y, D100G, G101F, H102Y, V106I
VL: B2 VL with N30S, N31S, T51P, P52T, W53G, F92Y, E105K, I106R, K107G
notes: as for B2
B13: GH2-72 IgG (antibody, V domains shown)
VH: EVQLVESGGGLVQPGGSLRLSCAASGFTISNGGIHWVRQAPGKGLEWVAYIWPSGGYTFYADSVKGRFTISADTSKNTAYLQMNSLRAEDTAVYYCARFFNNDWIGMDYWGQGTLVTVSS
VL: B2 VL with N30G, N31Y, G32F, P52T, F92S, D93N
notes: as for B2
B14: A21 (positive control IgG) (antibody, V domains shown)
VH: EVQLQQSGPEVVKTGASVKISCKASGYSFTGYFINWVKKNSGKSPEWIGHISSSYATSTYNQKFKNKAAFTVDTSSSTAFMQLNSLTSEDSAVYYCVRSGNYEEYAMDYWGQGTSVTVSS
VL: DIVLTQTPSSLPVSVGEKVTMTCKSSQTLLYSNNQKNYLAWYQQKPGQSPKLLISWAFTRKSGVPDRFTGSGSGTDFTLTIGSVKAEDLAVYYCQQYSNYPWTFGGGTRLEIK
notes: Positive control IgG; also called Antibody A21
B15: GH2-66 IgG (antibody, V domains shown)
VH: EVQLVESGGGLVQPGGSLRLSCAASGFTIGNWGIHWVRQAPGKGLEWVAYIWPYWGFTYYADSVKGRFTISADTSKNTAYLQMNSLRAEDTAVYYCARFLDWNLLWMDYWGQGTLVTVSS
VL: DIQMTQSPSSLSASVGDRVTITCRASQDVYSYVAWYQQKPGKAPKLLISYASGLYSGVPSRFSGSGSGTDFTLTISSLQPEDFATYYCQQYYNSPITFGQGTKVEIK
notes: as for B2
B16: GH2-54 IgG (antibody, V domains shown)
VH: EVQLVESGGGLVQPGGSLRLSCAASGFTISDGSIHWVRQAPGKGLEWVAFIGPYWGFTYYADSVKGRFTISADTSKNTAYLQMNSLRAEDTAVYYCARFVNWVHYGMDYWGQGTLVTVSS
VL: DIQMTQSPSSLSASVGDRVTITCRASQDVNDNVAWYQQKPGKAPKLLIFGSSSLYSGVPSRFSGSGSGTDFTLTISSLQPEDFATYYCQQGWNYPFTFGQGTKVEIK
notes: as for B2
B17: GH2-75 IgG (antibody, V domains shown)
VH: EVQLVESGGGLVQPGGSLRLSCAASGSTIGNSGIHWVRQAPGKGLEWVAYIGPYGGYTSYADSVKGRFTISADTSKNTAYLQMNSLRAEDTAVYYCARFDDYHWDGMDYWGQGTLVTVSS
VL: DIQMTQSPSSLSASVGDRVIITCRASQDVSGYVAWYQQKPGKAPKLLIYSSGVPSRFSGSGSGTDFTLTISSLQPEDFATYYCQQYYNWPVTFGQGTKVEIK
notes: as for B2

What was measured:
[1] = target: T1, extracellular domain (ECD) of human epidermal growth factor receptor 2 (HER2) (Homo sapiens, UniProt P04626); assay: competition binding assay; competition of S90 scFvs with IgGs (six mouse IgGs, four positive control IgGs) for binding to HER2/ECD; procedure in the Supplemental Experimental Procedures
T1 construct: human epidermal growth factor receptor 2 (HER2), extracellular domain (domains I-IV); also called HER2/ECD

[2] = target: T2, extracellular domain (ECD) of human epidermal growth factor receptor 2 (HER2) (Homo sapiens, UniProt P04626); assay: SPR; BIAcore T200; HER2/ECD immobilised on a CM5 chip by amine coupling to 1000 RU; IgG flowed in PBST (0.05% Tween 20) at 30 uL/min; regeneration 10 mM glycine pH 1.5; global fit to a 1:1 binding model; conditions: both partners purified
T2 construct: human epidermal growth factor receptor 2 (HER2), extracellular domain; also called HER2/ECD

Binder	binding result [1]	Kd [2] [nM]	koff [2] [s⁻¹]	kon [2] [M⁻¹ s⁻¹]
B1	binds	–	–	–
B2	–	3.04	0.000217	71200
B3	–	2.47	0.00679	2.75e+06
B4	–	6.02	0.000288	47800
B5	–	49.4	0.00163	33000
B6	–	13.3	0.00525	395000
B7	–	9.84	0.0608	6.18e+06
B8	–	13.4	0.0131	975000
B9	–	0.27	0.000104	387000
B10	–	1.53	0.00556	3.64e+06
B11	–	31.8	0.0111	350000
B12	–	0.169	0.000235	1.39e+06
B13	–	11.9	10.9	9.15e+08
B14	binds	–	–	–
B15	–	54.5	0.328	6.03e+06
B16	–	37.9	0.0128	339000
B17	–	0.177	0.000149	840000
